Test results reported in the DeepSol protein solubility set.

Experiment: soluble on expression in E. coli; label from the status in PepcDB or PDB records

Sequence	soluble on expression in E. coli
MFAPSTVYTYGHHGSGTDEDDGQQVMPGMDNGDGQCMVCGDRSAGKHYGVMACYGCKGFFRRTIRSQQTYTCRFTQKCAIDKDQRNACRYCRFQRCLTVGMEPEAIRPDRDVIGKQKNPRKKKMKSDTNSGSIDASLPSPNGCDSPVSNNEDVILSFLLDVEDQATCGNNHITMPIGISMMMKNDPDFDVSTLFHSQYVRNQESFPITYAVGRTASVEQLIAALRRYVLSAVHWIDALFNLAHLTEIHDKTTLLKSVIGPFTIFNIAARTAQISDGDLICLCNKSTINRQPARHLLDTNLVGNNFVGRVIDDLVFPTKKLALTNPEITILSALIILDPDARGLSQETSQALLGIRDRVQNALFNLIRDNSNNMTSVTSRFGNLLLLFPPLAKLSSLIGENVQLAKMFGIPIDSLLVELYVDADSPELISQGSHARERSDVSTQTASLEGASASMTPDVTSSEFVKMEQNESPSSSEEPMCIGAPATSSANAVATNLAADLLGLLPNFDATGLDLASAAAAAATSVNYSHFYGFGNLGGSLDDSSSSGTGSVGSFAPHSAPPISNNVNPFAVHGFFDNSAPNTGVVHNQPFRFV	not soluble
MFCSSNIPIRLRDKKENNSIIVLPGGSEKSAAGQWRPHLPT	not soluble
MFDPKMLSVEFRNGITDEKPIEGRKYTLTHNDDTGELFLTVALAYAYDKINSSARDEVFGVWKRGNNRFILKIYLYVDGNQGREEAIKRDRIFRKELPLALAAIAYGDRKFLDDNDDLLNSNIIVRFISAYEELNKIENYGTLKDYLEHHHHHH	soluble
MFEELKTFVAVVEYKNFTKAGEYLNLSQPSVSKHIKNLENYFKVVLINRSIKQKTIFITESGQILYKRAKEILNLLNITYHDVSQVSDAITGHLKIGASLTIGEYILPNFLALFSKKYPDIDVEVFIKNTSIVSSHVKDYILDIGLIEGTCSSPSFIQEYFFEDKMVLALPYKSHLLKDFSFDKLQNQKWIVREDGSGTRDYLDMFLSVKEIIPKSMMVFGSNYAVKESVRNNLGITIVSNLVTSLPVLNNELSVIELGSSYNRHFSYIFPKDITLSKAATIFIEELKIFSNLNSI	not soluble
MFEIRDVDLAGRIGRIYTQHGVVETPAFFPVIDVYRQEVSVDEVRAAGFGQVITNAYLLWKRFGWEAAEKGVHRILGFPGVVMTDSGAYQILEYGGVELSQGEVVEYQKRLGSDIAVILDIPTGDVGRREAEESVRETIRRALEARVMIEGDERIWVYPVQGGRYFDLVEESARVGGRLGFYRMYGIGSPTVFLERYMYHVVVEAVYRAKKHLPWGRPVHLFGAGHPLIFPYAVALGVDTFDSASYILYAREGRYITEYGVYRIEDLDYLPCSCPVCSRYTPQELREMDRVERTRLLALHNLYVISASMRRVKQAIREGRLWELLEETSRKHPSTARVMARMRRYIDALEKGSARGRGVVRGVRAYGLESLSNPRLSRFSSDAARLVEAMAEKWGGGKAVLKPLDPKPEPGQCESMVGGGEWILFYQPFLGVFPVEACGAYPSLQIDYPQEGLPAEVIGDLASKIASTVSILRGRGFTVRLEYCGKVEWQARAVEALKTAAAGDLPTVEACG	soluble
MFFNKSLQQENQRLKQELYSLQQIQQSLDEEMLRLTLDAKGNVTSANQKFLQQLSLSDKDILAKHISDLVPSNVRNTDHFYRMKQSVQAKAFWNGAFQITKGDGEEAWLRVVIQPVRNASDQVESFFVFASELTRTITTSREYEDMLNALSRSMAVIEFTLDGTVLKANDNFLSTMGYKHEQIVGKHHRIFCLPEEANSSAYHDFWKRLASGQFVTDRFKRVDQHGSVVWLEASYNPIHNDRGELYKVVKFATNITQQVLQ	not soluble
MFGKGENLAATDYQMVRHPDIHQAQCLYQTFRDKAVCLTGGDFTGRVIVCQHHGCGIVIQGAFNHFPGMDFRAVDGAGEEGFTGNQLILVIQIQHPELFTLQSRHVQNQPFPCRTGGGEGHAGFMKMAVQGFQGPQNETALAGRHFSGQKGNLLHCSCPLSVNNAHNGAAFRMLQGVIPQTVIMNRHGITLRTAGVMTVRHQTGGNAGGFRAHFSAVTVHDVKQHPCFVIIVIRFGCHKCATVVQGVQIPDTTAVVFIQTVHPAEDPGLQGHPLWNEAKMLRPEADALFIRDYGGNQLLQASLRCTGRRGGVLRQCFHV	not soluble
MFGNLGQAKKYLGQAAKMLIGIPDYDNYVEHMKTNHPDKPYMSYEEFFRERQNARYGGDGKGGMRCC	soluble
MFHLRTCAAKLRPLTASQTVKTFSQNRPAAARTFQQIRCYSAPVAAEPFLSGTSSNYVEEMYCAWLENPKSVHKSWDIFFRNTNAGAPPGTAYQSPLPLSRGSLAAVAHAQSLVEAQPNVDKLVEDHLAVQSLIRAYQIRGHHVAQLDPLGILDADLDSSVPADIISSTDKLGFYGLDESDLDKVFHLPTTTFIGGQESALPLREIIRRLEMAYCQHIGVEFMFINDLEQCQWIRQKFETPGIMQFTNEEKRTLLARLVRSTRFEEFLQRKWSSEKRFGLEGCEVLIPALKTIIDKSSENGVDYVIMGMPHRGRLNVLANVIRKELEQIFCQFDSKLEAADEGSGDVKYHLGMYHRRINRVTDRNITLSLVANPSHLEAADPVVMGKTKAEQFYCGDTEGKKVMSILLHGDAAFAGQGIVYETFHLSDLPSYTTHGTVHVVVNNQIGFTTDPRMARSSPYPTDVARVVNAPIFHVNSDDPEAVMYVCKVAAEWRSTFHKDVVVDLVCYRRNGHNEMDEPMFTQPLMYKQIRKQKPVLQKYAELLVSQGVVNQPEYEEEISKYDKICEEAFARSKDEKILHIKHWLDSPWPGFFTLDGQPRSMSCPSTGLTEDILTHIGNVASSVPVENFTIHGGLSRILKTRGEMVKNRTVDWALAEYMAFGSLLKEGIHIRLSGQDVERGTFSHRHHVLHDQNVDKRTCIPMNHLWPNQAPYTVCNSSLSEYGVLGFEAGLRMASPNALVLWEAQFGDFHNTAQCIIDQFICPGQAKWVRQNGIVLLLPHGMEGMGPEHSSARPERFLQMCNDDPDVLPDLKEANFDINQLYDCNWVVVNCSTPGNFFHVLRRQILLPFRKPLIIFTPKSLLRHPEARSSFDEMLPGTHFQRVIPEDGPAAQNPENVKRLLFCTGKVYYDLTRERKARDMVGQVAITRIEQLSPFPFDLLLKEVQKYPNAELAWCQEEHKNQGYYDYVKPRLRTTISRAKPVWYAGRNPAAAPATGNKKTH	soluble
MFIVKAFRDIIINIKFLQEGINMSDNKTAGQKLWENLSYNCPNVWNKIGNDEIKNTFAFCEEYKSFLDKSKTEREFVRETKKLAESKGFVSIDDVIDSGKPLKPGMKVYRVFKNKIVALAVIGSQPPEKGFNLVGAHIDSPRIDLKPNPIYEANEMVFLKTHYYGGIKKYQWVTIPLSMHGVIIRKDGSSVEIVIGEDENDTVFTITDLLPHLAAEQMQKKMSEGITGENLNILFGSIPYNDEKVKEKVKLNILKLLNEKYNITEEDLLSAELELVPSFKAKDVGLDKSMVGAYGQDDRVCAYTALRAVLDLDNVDKTAVCVLTDKEEIGSMGNTGAQSSFLENFIADICALSSEKYTDIILRRCLSNSKMLSADVNAAIDPTYEGVYDKLNSSFIGKGIVLLKYTGARGKSGASDAHAEFMGEVRKLFNERKIFWQTAELGKVDQGGGGTIAQFVANMGMDVIDCGVAVLSMHSPFEVTSKVDIYMAYKAYREFLKYIK	soluble
MFKILLALCIVGCSFAAPIHGDVDDELLGLAWEAAATSVNNGNRGKFWVPIEIQSSDKNGAVTNLVVVFQESWCSVEEGNDLEDVCESMCPVYYGGAKATYRVTATESNGGSDFESVRIE	not soluble
MFKKALFILSLCPSFALAQSYVVYDFTHNRVLESHASDSIQPIASVTKLMTANVFLENNKNPNCRIAITKEDTDRIKGTGTKLPKNIPISCNELLKAMLVHSDNYAAHALSRAAGISRRQFIKKMNEKAHQLGMYSTRFHDSSGLSSYNISSPMDLVKLAKYSLNKSDIKRLSNLSATYIQAGKQKLYIKNTNKLVRDEIFDAAVNKTGYIQESGYNLVFINKHRCKNATIGVISLNNTSSAYRSSFTKSKLEKFGCTALNGRTIRDVAGEAQYEDGYDEVGFNTLIQKLSK	not soluble
MFKRTKLILIATILLSGCSTTNNESNNETKSVPEEMEASKYVGQGFQPPAEKDAVEFAKKHKDKIAKRGEQFFMDNFGLKVKATNVVGSGDGVEVFVHCDDHDIVFNASIPFDKSIIDSDSSLRSEDKGDDMSTLVGTVLSGFEYRAQKEKYDNLYKFFKENEKKYQYTGFTKEAINKTQNSGYENEYFYIVANIPTLQEYRKYYEPLIKKNNLNFKKGMKQARKGVGYKAAIEVHTTLFSRSSNFSKDKKLDDVIDLSESTKKLHLNFENTKIFLQLAKSTISTNRVNYSDNESIRIEVELEHHHHHH	soluble
MFKRTKLILIATLLLSGCSTTNNESNNETKSVPEEMEASKYVGQGFQPPAEKDAIEFAKKHRKEFEKVGEQFFKDNFGLKVKATNVVGKDDGIEVYVHCDDHGIVFNASLPLYKDAIHQKGSMRSNDNGDDMSMMVGTVLSGFEYRAQKEKYDNLYKFFKENEKKYQYTGFTKEAINKTQNVGYKNEYFYITYSSRSLKEYRKYYEPLIQKNDKEFKEGMERARKEVNYAADTDAVATLFSTKKNFTNDNTEDDVIELSDKLYNLKNKPDKSTITIQIGKPTINTKKAFYDDNRPIEYGVHSKGELEHHHHHH	not soluble
MFKSLSQLFRPRVEALGLEIGASALKLVEVSGNPPALKALASRPTPPGLLMEGMVAEPAALAQEIKELLLEARTRKRYVVTALSNLAVILRPIQVPKMPLKEMEEAVRWEAERYIPFPIDEVVLDFAPLTPLSEVQEGEQVQVMVAAARQEAVAGVLEALRGAGLVPVVLDVKPFAGLYPLEARLAEEPDRVFLALDIGAESTSLVLLRGDKPLAVRVLTLSGKDFTEAIARSFNLDLLAAEEVKRTYGMATLPTEDEELLLDFDAERERYSPGRIYDAIRPVLVELTQELRRSLEFFRIQLEEASPEVGYLLGGGSKLRGLASLLTDTLGVNFEPVNPWEAVAVDPKRFESEQLQEIGPEFAVALGLALRGVEPLD	soluble
MFLFSELCRRLSPDAVRIVSDHRIVHLLTDSRTLSEPATTLFFALRTTSGDGHLYIRDLYDRGVRSFVISDPSKDLMEKMPQANWMRVAHPLDALQRIAALRRSMFDIPVIGITGSNGKTIVKEFLYQLLRKDYRIVRSPRSYNSQIGVPLSVWQMAEEHTLGIFEAGISQMGEMERLE	not soluble
MFNLRPAATLVALAAALSSLPALAEEARYNQISLRAEVNQEVQRDLMLVTLYTEAQDSDPARLAAQITETLNKALGQARQVKDVKIRQGSRNSYPVYDDKGQKITGWRERAELRLESADFAVLSKLTGELLTDLKMGGMDFSISPSTRKTSEDALLKDAVTAFKARAQLVTEALGGKGYKLVNLNLNTSGYPQPYLRAPVMMMAKSSRDESAPTPDVEAGTSQVSVAADGVIEVAIPLEHHHHHH	soluble
